B1: human FSTL 1 (hFSTL1): N180Q (Mut-1) (protein)
parent chain: MWKRWLALALALVAVAWVRAEEELRSKSKICANVFCGAGRECAVTEKGEPTCLCIEQCKPHKRPVCGSNGKTYLNHCELHRDACLTGSKIQVDYDGHCKEKKSVSPSASPVVCYQSNRDELRRRIIQWLEAEIIPDGWFSKGSNYSEILDKYFKNFDNGDSRLDSSEFLKFVEQNETAINITTYPDQENNKLLRGLCVDALIELSDENADWKLSFQEFLKCLNPSFNPPEKKCALEDETYADGAETEVDCNRCVCACGNWVCTAMTCDGKNQKGAQTQTEEEMTRYVQELQKHQETAEKTKRVSTKEI
B2: human FSTL 1 (hFSTL1): Mut-(1–3) (protein)
parent chain: B1 parent chain
B3: human FSTL 1 (hFSTL1): N144Q (Mut-3) (protein)
parent chain: B1 parent chain
B4: human FSTL 1 (hFSTL1): N175Q (Mut-2) (protein)
parent chain: B1 parent chain

Columns and labels:
[1] = Masson trichrome staining, 28 days post-MI; settings: glycan lost; control: Luc modRNA (hFSTL1 modRNA not significant)
[2] = weighing, 28 days post-MI; settings: glycan lost; control: Luc modRNA
[3] = echography, %EF and %FS, 28 days post-MI; settings: glycan lost; control: Luc modRNA (hFSTL1 modRNA not significant)
[4] = proliferation markers in non-CMs 7 days post-MI; settings: glycan lost; control: hFSTL1 modRNA
[5] = CD31 staining, left ventricle, 28 days post-MI; settings: glycan lost; control: Luc modRNA
[6] = CD45 staining 7 days post-MI; settings: glycan lost; control: hFSTL1 modRNA
[7] = CM size in heart sections 7 days post-MI; settings: glycan lost; control: control constructs

Protein	other: scar size post-MI [1]	other: heart weight-to-body weight ratio [2]	other: cardiac function post-MI [3]	other: non-CM proliferation in heart [4]	other: capillary density post-MI [5]	other: leukocyte infiltration in heart [6]	other: CM size / hypertrophy [7]
B1	decreases	increases	increases	no change	increases	no change	no change
B2	no change		no change	no change		no change	no change
B3				no change		no change	
B4				no change		no change	

From paper PMC6171324
